The numbers were not newly measured in article PMC3433420, which cites them from elsewhere.

Among the targets are BLK (Homo sapiens) (UniProt P51451); PLCG2-N (Homo sapiens) (UniProt P16885); GRB2 (Homo sapiens) (UniProt P62993); ABL1 (Homo sapiens) (UniProt P00519); SH2D1B (Homo sapiens) (UniProt O14796); VAV3 (Homo sapiens) (UniProt Q9UKW4); RASA1-C (Homo sapiens) (UniProt P20936); SHF (Homo sapiens) (UniProt Q7M4L6); SYK-NC (Homo sapiens) (UniProt P43405); SHB (Homo sapiens) (UniProt Q15464); VAV2 (Homo sapiens) (UniProt P52735); ITK (Homo sapiens) (UniProt Q08881); VAV1 (Homo sapiens) (UniProt P15498); SRC (Homo sapiens) (UniProt P12931); PIK3R1-C (Homo sapiens) (UniProt P27986); SHE (Homo sapiens) (UniProt Q5VZ18); GRB10 (Homo sapiens) (UniProt Q13322); TENC1 (Homo sapiens) (UniProt Q63HR2); TNS3 (Homo sapiens) (UniProt Q68CZ2); SH2D3C (Homo sapiens) (UniProt Q8N5H7); SLA (Homo sapiens) (UniProt Q13239); RASA1-N (Homo sapiens) (UniProt P20936); HSH2D (Homo sapiens) (UniProt Q96JZ2); TNS4 (Homo sapiens) (UniProt Q8IZW8); PIK3R2-NC (Homo sapiens) (UniProt O00459); PIK3R2-N (Homo sapiens) (UniProt O00459); PIK3R3-N (Homo sapiens) (UniProt Q92569); PIK3R1-N (Homo sapiens) (UniProt P27986).

What all share (conditions): cited from earlier work
The target of series [1] is GRB7 (Homo sapiens) (UniProt Q14451).
Series [2] deals with YES1 (Homo sapiens) (UniProt P07947).
Series [3] addresses RASA1-NC (Homo sapiens) (UniProt P20936).
The target in series [4] is PLCG2-NC (Homo sapiens) (UniProt P16885).
The target of series [5] is ABL2 (Homo sapiens) (UniProt P42684).
For series [6], the target named is SHC1-PTB (Homo sapiens) (UniProt P29353).
For series [7], the target named is NCK2 (Homo sapiens) (UniProt O43639).
Series [8] has as its target GRB7 (Homo sapiens) (UniProt Q14451). The source holds these as a separate data set.
For series [9], the target named is RASA1-NC (Homo sapiens) (UniProt P20936). The source holds these as a separate data set.
In series [10] the target is YES1 (Homo sapiens) (UniProt P07947). The source holds these as a separate data set.
The target in series [11] is NCK2 (Homo sapiens) (UniProt O43639). This is another data set of the same source.
Series [12] has as its target PIK3R3-NC (Homo sapiens) (UniProt Q92569).
Series [13] deals with PIK3R1-NC (Homo sapiens) (UniProt P27986).
Series [14] addresses SHC1-PTB (Homo sapiens) (UniProt P29353). The source holds these as a separate data set.
Series [15] addresses ABL2 (Homo sapiens) (UniProt P42684). The source holds these as a separate data set.
Series [16] shares this target. This is another data set of the same source.
Series [17] deals with PLCG2-NC (Homo sapiens) (UniProt P16885). This is another data set of the same source.
Series [18] addresses RASA1-NC (Homo sapiens) (UniProt P20936). This is another data set of the same source.
For series [19], the target named is PIK3R3-NC (Homo sapiens) (UniProt Q92569). This is another data set of the same source.
The target is the same in series [20]. This is another data set of the same source.
Series [21] has as its target ABL2 (Homo sapiens) (UniProt P42684). This is another data set of the same source.
Series [22] deals with PIK3R1-NC (Homo sapiens) (UniProt P27986). This is another data set of the same source.
Series [23] deals with SHC1-PTB (Homo sapiens) (UniProt P29353). This is another data set of the same source.
The target of series [24] is ABL2 (Homo sapiens) (UniProt P42684). The source holds these as a separate data set.

Like-named read-outs stand apart in the source and are kept apart here.

ABL2 (Homo sapiens), sequence (P42684 168-268): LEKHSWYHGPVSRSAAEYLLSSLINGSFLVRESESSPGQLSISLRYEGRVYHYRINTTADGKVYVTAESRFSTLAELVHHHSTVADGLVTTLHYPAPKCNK
RASA1-NC (Homo sapiens), sequence (P20936 176-446): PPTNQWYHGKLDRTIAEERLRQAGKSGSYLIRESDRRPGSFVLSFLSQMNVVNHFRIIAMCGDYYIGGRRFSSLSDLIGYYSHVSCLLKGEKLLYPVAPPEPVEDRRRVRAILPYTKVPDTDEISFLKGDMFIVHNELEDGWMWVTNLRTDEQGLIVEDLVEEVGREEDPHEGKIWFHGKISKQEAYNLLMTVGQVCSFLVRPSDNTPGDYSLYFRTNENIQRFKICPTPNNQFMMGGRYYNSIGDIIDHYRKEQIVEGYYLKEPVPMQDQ
SHC1-PTB (Homo sapiens), sequence (P29353 483-583): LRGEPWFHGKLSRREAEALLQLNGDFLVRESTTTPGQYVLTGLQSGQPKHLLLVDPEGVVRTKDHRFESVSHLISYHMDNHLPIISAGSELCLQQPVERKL
PIK3R1-NC (Homo sapiens), sequence (P27986 328-723): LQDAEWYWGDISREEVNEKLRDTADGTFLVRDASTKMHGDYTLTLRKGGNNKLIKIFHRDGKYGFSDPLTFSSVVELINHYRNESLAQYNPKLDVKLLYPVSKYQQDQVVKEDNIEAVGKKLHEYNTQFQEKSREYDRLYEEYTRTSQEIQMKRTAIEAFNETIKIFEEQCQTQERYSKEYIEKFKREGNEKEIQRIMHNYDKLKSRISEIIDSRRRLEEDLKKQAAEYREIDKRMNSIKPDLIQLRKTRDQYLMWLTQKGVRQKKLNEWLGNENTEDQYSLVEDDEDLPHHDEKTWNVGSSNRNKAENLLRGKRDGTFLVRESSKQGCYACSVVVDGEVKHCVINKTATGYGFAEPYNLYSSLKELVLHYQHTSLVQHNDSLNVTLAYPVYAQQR
YES1 (Homo sapiens), sequence (P07947 153-260): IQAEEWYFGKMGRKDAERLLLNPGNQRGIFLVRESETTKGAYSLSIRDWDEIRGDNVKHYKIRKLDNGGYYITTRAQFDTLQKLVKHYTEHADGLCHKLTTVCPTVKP
GRB7 (Homo sapiens), sequence (Q14451 426-532): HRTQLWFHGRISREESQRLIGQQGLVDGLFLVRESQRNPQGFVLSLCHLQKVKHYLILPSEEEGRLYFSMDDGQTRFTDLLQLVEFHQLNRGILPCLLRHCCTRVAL
NCK2 (Homo sapiens), sequence (O43639 280-380): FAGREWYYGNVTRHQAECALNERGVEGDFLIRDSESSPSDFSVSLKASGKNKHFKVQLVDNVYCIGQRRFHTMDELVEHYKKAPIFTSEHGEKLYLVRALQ
PLCG2-NC (Homo sapiens), sequence (P16885 527-740): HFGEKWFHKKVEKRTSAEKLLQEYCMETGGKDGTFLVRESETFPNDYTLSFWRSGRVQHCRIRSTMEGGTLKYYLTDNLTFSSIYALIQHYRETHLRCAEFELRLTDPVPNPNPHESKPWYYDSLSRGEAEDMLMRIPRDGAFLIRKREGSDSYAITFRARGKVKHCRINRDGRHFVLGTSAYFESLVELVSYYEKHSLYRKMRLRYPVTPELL
PIK3R1-C (Homo sapiens), sequence (P27986 328-723): as the sequence (P27986 328-723) above
PIK3R1-N (Homo sapiens), sequence (P27986 328-723): as above
PIK3R2-N (Homo sapiens), sequence (O00459 325-721): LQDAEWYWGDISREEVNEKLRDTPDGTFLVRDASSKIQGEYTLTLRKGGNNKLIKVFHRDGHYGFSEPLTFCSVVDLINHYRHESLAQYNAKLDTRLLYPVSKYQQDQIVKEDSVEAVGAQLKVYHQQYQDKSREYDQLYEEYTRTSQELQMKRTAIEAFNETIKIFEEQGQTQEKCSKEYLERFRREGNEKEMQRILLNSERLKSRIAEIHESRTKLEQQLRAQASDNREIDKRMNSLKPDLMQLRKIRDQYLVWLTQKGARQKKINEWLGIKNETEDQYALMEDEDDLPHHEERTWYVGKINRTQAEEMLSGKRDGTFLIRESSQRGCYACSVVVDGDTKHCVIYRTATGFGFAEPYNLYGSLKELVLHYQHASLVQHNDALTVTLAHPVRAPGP
PIK3R2-NC (Homo sapiens), sequence (O00459 325-721): as above
ITK (Homo sapiens), sequence (Q08881 234-343): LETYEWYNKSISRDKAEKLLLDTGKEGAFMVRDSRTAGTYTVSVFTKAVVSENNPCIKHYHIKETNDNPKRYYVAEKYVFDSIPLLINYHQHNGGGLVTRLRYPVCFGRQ
SH2D1B (Homo sapiens), sequence (O14796 1-106): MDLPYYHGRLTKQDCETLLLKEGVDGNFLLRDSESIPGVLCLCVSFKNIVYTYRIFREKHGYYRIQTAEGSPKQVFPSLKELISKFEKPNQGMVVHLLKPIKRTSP
HSH2D (Homo sapiens), sequence (Q96JZ2 29-130): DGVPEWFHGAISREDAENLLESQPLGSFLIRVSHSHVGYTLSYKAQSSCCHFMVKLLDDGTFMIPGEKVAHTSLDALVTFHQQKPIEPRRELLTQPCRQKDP
SLA (Homo sapiens), sequence (Q13239 79-180): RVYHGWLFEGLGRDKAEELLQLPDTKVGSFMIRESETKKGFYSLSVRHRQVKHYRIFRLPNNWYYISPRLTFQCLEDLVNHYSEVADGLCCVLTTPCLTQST
VAV1 (Homo sapiens), sequence (P15498 666-770): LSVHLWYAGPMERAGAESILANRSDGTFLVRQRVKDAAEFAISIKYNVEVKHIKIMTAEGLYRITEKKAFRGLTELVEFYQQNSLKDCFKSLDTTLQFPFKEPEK
TENC1 (Homo sapiens), sequence (Q63HR2 1135-1252): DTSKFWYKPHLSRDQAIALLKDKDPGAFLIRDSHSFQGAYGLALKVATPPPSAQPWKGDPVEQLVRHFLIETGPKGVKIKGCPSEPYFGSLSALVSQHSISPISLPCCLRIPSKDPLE
GRB10 (Homo sapiens), sequence (Q13322 488-579): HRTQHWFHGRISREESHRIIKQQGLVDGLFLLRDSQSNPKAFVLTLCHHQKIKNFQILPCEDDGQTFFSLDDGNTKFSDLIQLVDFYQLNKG
SH2D3C (Homo sapiens), sequence (Q8N5H7 215-324): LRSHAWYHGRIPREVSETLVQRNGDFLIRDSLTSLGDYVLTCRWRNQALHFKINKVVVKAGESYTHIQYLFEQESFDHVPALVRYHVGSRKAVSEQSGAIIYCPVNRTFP
TNS3 (Homo sapiens), sequence (Q68CZ2 1167-1287): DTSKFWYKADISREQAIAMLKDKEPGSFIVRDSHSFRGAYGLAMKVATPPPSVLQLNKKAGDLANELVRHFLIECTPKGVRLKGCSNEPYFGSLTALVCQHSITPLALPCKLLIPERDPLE
VAV3 (Homo sapiens), sequence (Q9UKW4 667-771): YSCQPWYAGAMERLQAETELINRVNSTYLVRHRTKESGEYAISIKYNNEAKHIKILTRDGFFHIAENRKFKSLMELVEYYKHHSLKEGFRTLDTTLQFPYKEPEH
TNS4 (Homo sapiens), sequence (Q8IZW8 444-561): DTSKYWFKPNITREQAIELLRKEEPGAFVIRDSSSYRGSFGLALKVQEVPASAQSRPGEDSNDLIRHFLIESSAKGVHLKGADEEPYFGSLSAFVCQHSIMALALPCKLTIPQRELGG

In the case of …pYHADGGKVd, the apparent Kd (screen) with GRB7 (Homo sapiens) [1] is 1200 nM; with BLK (Homo sapiens), 718 nM; in the series with YES1 (Homo sapiens) [2], 1890 nM; in the series with PLCG2-N (Homo sapiens), 647 nM; with RASA1-NC (Homo sapiens) [3], 1400 nM; with PLCG2-NC (Homo sapiens) [4] it was 1100 nM.

In the case of …pYHNQPLNPd, the apparent Kd (screen) in the series with GRB2 (Homo sapiens) is 2000 nM; with ABL2 (Homo sapiens) [5] it was 62 nM; with SHC1-PTB (Homo sapiens) [6] it was 321 nM; in the series with NCK2 (Homo sapiens) [7], 2000 nM; with ABL1 (Homo sapiens) it was 523 nM.

Consider …pYLLNWCVQd, for which the apparent Kd (screen) in the series with SH2D1B (Homo sapiens) was 1600 nM; with VAV3 (Homo sapiens), 960 nM; with RASA1-C (Homo sapiens), 1950 nM; in the series with SHF (Homo sapiens) it was 1060 nM; in the series with SYK-NC (Homo sapiens), 240 nM; with GRB7 (Homo sapiens) [8] it was 456 nM. Also, the apparent Kd (screen) in the series with SHB (Homo sapiens) was 276 nM; with RASA1-NC (Homo sapiens) [9], 155 nM; in the series with VAV2 (Homo sapiens), 472 nM; with ITK (Homo sapiens), 310 nM; in the series with VAV1 (Homo sapiens) it was 373 nM; in the series with YES1 (Homo sapiens) [10], 22 nM. Moreover, the apparent Kd (screen) was 84 nM with SRC (Homo sapiens); 195 nM in the series with NCK2 (Homo sapiens) [11]; 1850 nM in the series with PIK3R1-C (Homo sapiens); 1870 nM in the series with PIK3R3-NC (Homo sapiens) [12]; 1380 nM in the series with SHE (Homo sapiens); 1820 nM with PIK3R1-NC (Homo sapiens) [13]. Further, the apparent Kd (screen) is 353 nM in the series with GRB10 (Homo sapiens); 1140 nM with TENC1 (Homo sapiens); 1500 nM in the series with SHC1-PTB (Homo sapiens) [14]; 1890 nM with TNS3 (Homo sapiens); 52 nM in the series with SH2D3C (Homo sapiens); 201 nM in the series with ABL2 (Homo sapiens) [15].

Consider …pYMDVGSDL, for which the apparent Kd (screen) with ABL2 (Homo sapiens) [16] is 1130 nM; with PLCG2-NC (Homo sapiens) [17] it was 2000 nM; with SLA (Homo sapiens) it was 2000 nM; with RASA1-N (Homo sapiens), 2000 nM; with RASA1-NC (Homo sapiens) [18] it was 2000 nM; with PIK3R3-NC (Homo sapiens) [19], 1510 nM.

For …pYTHQSDVWd, the apparent Kd (screen) with HSH2D (Homo sapiens) is 1130 nM; with TNS4 (Homo sapiens), 299 nM.

In the case of …pYTPMSGNQd, the apparent Kd (screen) with PIK3R2-NC (Homo sapiens) was 461 nM; with PIK3R2-N (Homo sapiens), 201 nM; with PIK3R3-NC (Homo sapiens) [20] it was 576 nM; in the series with ABL2 (Homo sapiens) [21], 659 nM; with PIK3R3-N (Homo sapiens), 888 nM; in the series with PIK3R1-NC (Homo sapiens) [22] it was 1440 nM. Also, the apparent Kd (screen) with PIK3R1-N (Homo sapiens) was 541 nM.

In the case of …pYWNHSLPPd, the apparent Kd (screen) in the series with SHC1-PTB (Homo sapiens) [23] was 509 nM; with ABL2 (Homo sapiens) [24] it was 34 nM.
